B1: GpH7-B3 variant S337_04F/GpL16-k0 (antibody, human IgG1, kappa)
heavy: not shown
light: DIVMTQSPLSLPVTPGEPASISCQASESLVHSNRNTYLHWYLQKPGQSPQLLIYKVSNRFSGVPDRFSGSGSGTDFTLKISRVEAEDVGVYYCSQNTHVPPTFGQGTKVEIERTVAAPSVFIFPPSDEQLKSGTASVVCLLNNFYPREAKVQWKVDNALQSGNSQESVTEQDSKDSTYSLSSTLTLSKADYEKHKVYACEVTHQGLSSPVTKSFNRGEC
notes: also called Ho Ab S337_04F
B2: GpH7-B3 variant A330_05P/GpL16-k0 (antibody, human IgG1, kappa)
heavy: not shown
light: B1 light
notes: also called Ho Ab A330_05P
B3: GpH7-B3 variant I332_06M/GpL16-k0 (antibody, human IgG1, kappa)
heavy: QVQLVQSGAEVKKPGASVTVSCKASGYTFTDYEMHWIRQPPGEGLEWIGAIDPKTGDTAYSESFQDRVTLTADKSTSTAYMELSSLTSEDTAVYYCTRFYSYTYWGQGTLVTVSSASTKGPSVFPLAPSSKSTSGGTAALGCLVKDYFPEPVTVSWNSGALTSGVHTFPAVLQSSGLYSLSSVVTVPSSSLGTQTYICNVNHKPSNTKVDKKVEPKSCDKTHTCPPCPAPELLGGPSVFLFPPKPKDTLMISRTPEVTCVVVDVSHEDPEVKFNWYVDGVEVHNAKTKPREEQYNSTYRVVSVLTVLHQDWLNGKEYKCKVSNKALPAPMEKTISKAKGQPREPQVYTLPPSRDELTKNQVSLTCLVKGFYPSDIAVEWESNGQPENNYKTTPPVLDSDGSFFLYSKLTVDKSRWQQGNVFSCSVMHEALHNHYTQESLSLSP
light: B1 light
notes: also called Ho Ab I332_06M
B4: GpH7-B3 variant E333_04F/GpL16-k0 (antibody, human IgG1, kappa)
heavy: not shown
light: B1 light
notes: also called Ho Ab E333_04F
B5: GpH7-B3 variant S337_14T/GpL16-k0 (antibody, human IgG1, kappa)
heavy: not shown
light: B1 light
notes: also called Ho Ab S337_14T
B6: GpH7-B3 variant E333_03V/GpL16-k0 (antibody, human IgG1, kappa)
heavy: not shown
light: B1 light
notes: also called Ho Ab E333_03V
B7: GpH7-B3 variant I336_08L/GpL16-k0 (antibody, human IgG1, kappa)
heavy: not shown
light: B1 light
notes: also called Ho Ab I336_08L
B8: GpH7-B3 variant I336_02A/GpL16-k0 (antibody, human IgG1, kappa)
heavy: not shown
light: B1 light
notes: also called Ho Ab I336_02A
B9: GpH7-B3 variant P238_10E/GpL16-k0 (antibody, human IgG1, kappa)
heavy: not shown
light: B1 light
notes: also called Ho Ab P238_10E
B10: GpH7-B3 variant E333_09D/GpL16-k0 (antibody, human IgG1, kappa)
heavy: not shown
light: B1 light
notes: also called Ho Ab E333_09D
B11: GpH7-B3 variant E333_13S/GpL16-k0 (antibody, human IgG1, kappa)
heavy: not shown
light: B1 light
notes: also called Ho Ab E333_13S
B12: GpH7-B3 variant S337_10E/GpL16-k0 (antibody, human IgG1, kappa)
heavy: not shown
light: B1 light
notes: also called Ho Ab S337_10E
B13: GpH7-B3 variant S267_02A/GpL16-k0 (antibody, human IgG1, kappa)
heavy: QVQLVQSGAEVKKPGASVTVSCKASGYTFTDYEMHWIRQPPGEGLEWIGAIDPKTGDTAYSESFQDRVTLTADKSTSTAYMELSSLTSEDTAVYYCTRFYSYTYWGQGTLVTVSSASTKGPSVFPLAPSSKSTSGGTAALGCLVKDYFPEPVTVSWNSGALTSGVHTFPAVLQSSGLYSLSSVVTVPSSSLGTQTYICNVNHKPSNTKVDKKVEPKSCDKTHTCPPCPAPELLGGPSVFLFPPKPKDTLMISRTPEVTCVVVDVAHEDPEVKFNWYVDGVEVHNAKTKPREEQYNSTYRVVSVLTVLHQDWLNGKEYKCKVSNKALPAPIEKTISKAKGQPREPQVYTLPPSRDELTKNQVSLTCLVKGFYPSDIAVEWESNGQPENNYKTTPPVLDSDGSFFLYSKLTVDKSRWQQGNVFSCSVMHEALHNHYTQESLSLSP
light: B1 light
notes: also called Ho Ab S267_02A
B14: GpH7-B3 variant G236_15Y/GpL16-k0 (antibody, human IgG1, kappa)
heavy: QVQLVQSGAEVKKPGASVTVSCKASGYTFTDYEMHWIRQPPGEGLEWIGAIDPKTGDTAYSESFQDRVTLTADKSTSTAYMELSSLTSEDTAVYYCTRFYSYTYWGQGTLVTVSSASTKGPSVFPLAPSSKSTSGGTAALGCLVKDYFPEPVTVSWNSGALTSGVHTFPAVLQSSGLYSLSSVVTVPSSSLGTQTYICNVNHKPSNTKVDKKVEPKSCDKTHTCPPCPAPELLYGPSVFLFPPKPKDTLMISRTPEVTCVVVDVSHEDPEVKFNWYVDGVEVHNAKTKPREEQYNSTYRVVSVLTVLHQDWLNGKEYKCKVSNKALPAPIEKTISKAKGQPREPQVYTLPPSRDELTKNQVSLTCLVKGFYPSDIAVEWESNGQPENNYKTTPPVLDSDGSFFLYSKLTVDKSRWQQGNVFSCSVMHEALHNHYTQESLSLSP
light: B1 light
notes: also called Ho Ab G236_15Y
B15: GpH7-B3 variant S298_14T/GpL16-k0 (antibody, human IgG1, kappa)
heavy: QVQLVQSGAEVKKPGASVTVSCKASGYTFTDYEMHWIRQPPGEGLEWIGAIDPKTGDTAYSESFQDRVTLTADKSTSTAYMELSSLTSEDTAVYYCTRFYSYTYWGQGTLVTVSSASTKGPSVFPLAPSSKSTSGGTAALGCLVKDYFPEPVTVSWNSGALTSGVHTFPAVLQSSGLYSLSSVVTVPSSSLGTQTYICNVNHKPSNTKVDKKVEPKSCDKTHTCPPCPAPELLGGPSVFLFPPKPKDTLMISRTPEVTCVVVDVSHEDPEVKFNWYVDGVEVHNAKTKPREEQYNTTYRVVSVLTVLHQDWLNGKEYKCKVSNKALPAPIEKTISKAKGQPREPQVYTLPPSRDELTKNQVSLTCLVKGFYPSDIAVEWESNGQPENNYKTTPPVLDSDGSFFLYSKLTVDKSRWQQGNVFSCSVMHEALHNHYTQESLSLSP
light: B1 light
notes: also called Ho Ab S298_14T
B16: GpH7-B3 variant L234_04F/GpL16-k0 (antibody, human IgG1, kappa)
heavy: not shown
light: B1 light
notes: also called Ho Ab L234_04F
B17: GpH7-B3 variant K326_07I/GpL16-k0 (antibody, human IgG1, kappa)
heavy: not shown
light: B1 light
notes: also called Ho Ab K326_07I
B18: GpH7-B3 variant E333_20W/GpL16-k0 (antibody, human IgG1, kappa)
heavy: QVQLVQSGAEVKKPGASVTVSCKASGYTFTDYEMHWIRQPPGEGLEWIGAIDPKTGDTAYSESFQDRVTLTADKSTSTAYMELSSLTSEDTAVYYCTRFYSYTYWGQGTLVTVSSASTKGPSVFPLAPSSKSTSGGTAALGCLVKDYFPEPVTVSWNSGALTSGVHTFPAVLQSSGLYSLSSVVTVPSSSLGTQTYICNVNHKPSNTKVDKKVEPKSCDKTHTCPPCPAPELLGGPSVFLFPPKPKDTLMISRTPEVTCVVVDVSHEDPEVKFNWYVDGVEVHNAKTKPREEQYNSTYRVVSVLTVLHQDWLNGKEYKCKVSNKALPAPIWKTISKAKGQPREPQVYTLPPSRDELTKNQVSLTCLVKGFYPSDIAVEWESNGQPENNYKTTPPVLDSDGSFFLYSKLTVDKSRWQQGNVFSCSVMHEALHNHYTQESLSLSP
light: B1 light
notes: also called Ho Ab E333_20W
B19: GpH7-B3 variant H268_18N/GpL16-k0 (antibody, human IgG1, kappa)
heavy: not shown
light: B1 light
notes: also called Ho Ab H268_18N
B20: GpH7-B3 variant S324_15Y/GpL16-k0 (antibody, human IgG1, kappa)
heavy: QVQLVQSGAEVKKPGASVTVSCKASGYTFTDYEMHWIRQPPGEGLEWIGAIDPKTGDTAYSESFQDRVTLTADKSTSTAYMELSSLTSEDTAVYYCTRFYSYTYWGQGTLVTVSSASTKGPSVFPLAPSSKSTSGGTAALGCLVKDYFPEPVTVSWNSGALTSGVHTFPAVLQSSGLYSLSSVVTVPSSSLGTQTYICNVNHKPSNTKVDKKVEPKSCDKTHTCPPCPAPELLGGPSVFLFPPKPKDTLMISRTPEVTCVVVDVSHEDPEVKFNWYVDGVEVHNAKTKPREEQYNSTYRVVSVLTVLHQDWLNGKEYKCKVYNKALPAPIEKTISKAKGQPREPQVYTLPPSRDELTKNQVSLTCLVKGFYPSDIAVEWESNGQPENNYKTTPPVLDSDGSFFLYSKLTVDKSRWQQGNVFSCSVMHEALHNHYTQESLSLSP
light: B1 light
notes: also called Ho Ab S324_15Y
B21: GpH7-B3 variant E333_02A/GpL16-k0 (antibody, human IgG1, kappa)
heavy: not shown
light: B1 light
notes: also called Ho Ab E333_02A
B22: GpH7-B3 variant I336_18N/GpL16-k0 (antibody, human IgG1, kappa)
heavy: not shown
light: B1 light
notes: also called Ho Ab I336_18N
B23: GpH7-B3 variant P271_01G/GpL16-k0 (antibody, human IgG1, kappa)
heavy: not shown
light: B1 light
notes: also called Ho Ab P271_01G
B24: GpH7-B3 variant P238_09D/GpL16-k0 (antibody, human IgG1, kappa)
heavy: not shown
light: B1 light
notes: also called Ho Ab P238_09D
B25: GpH7-B3 variant I336_06M/GpL16-k0 (antibody, human IgG1, kappa)
heavy: not shown
light: B1 light
notes: also called Ho Ab I336_06M
B26: GpH7-B3 variant Q295_14T/GpL16-k0 (antibody, human IgG1, kappa)
heavy: not shown
light: B1 light
notes: also called Ho Ab Q295_14T
B27: GpH7-B3 variant L234_07I/GpL16-k0 (antibody, human IgG1, kappa)
heavy: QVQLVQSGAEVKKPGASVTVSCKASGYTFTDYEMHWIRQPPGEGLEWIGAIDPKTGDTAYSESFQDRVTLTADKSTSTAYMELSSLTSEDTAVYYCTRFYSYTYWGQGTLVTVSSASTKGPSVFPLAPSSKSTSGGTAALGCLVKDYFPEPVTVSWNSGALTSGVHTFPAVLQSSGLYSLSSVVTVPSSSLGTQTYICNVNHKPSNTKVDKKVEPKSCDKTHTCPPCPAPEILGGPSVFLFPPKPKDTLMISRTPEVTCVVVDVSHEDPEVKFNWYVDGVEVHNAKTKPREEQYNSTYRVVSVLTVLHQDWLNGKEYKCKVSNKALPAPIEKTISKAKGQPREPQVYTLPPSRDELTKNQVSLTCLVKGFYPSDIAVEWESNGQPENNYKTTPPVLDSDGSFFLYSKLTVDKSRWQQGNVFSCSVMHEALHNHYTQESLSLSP
light: B1 light
notes: also called Ho Ab L234_07I
B28: GpH7-B3 variant H268_02A/GpL16-k0 (antibody, human IgG1, kappa)
heavy: not shown
light: B1 light
notes: also called Ho Ab H268_02A
B29: GpH7-B3 variant K334_01G/GpL16-k0 (antibody, human IgG1, kappa)
heavy: not shown
light: B1 light
notes: also called Ho Ab K334_01G
B30: GpH7-B3 variant S324_16H/GpL16-k0 (antibody, human IgG1, kappa)
heavy: not shown
light: B1 light
notes: also called Ho Ab S324_16H
B31: GpH7-B3 variant A330_07I/GpL16-k0 (antibody, human IgG1, kappa)
heavy: not shown
light: B1 light
notes: also called Ho Ab A330_07I
B32: GpH7-B3 variant I332_01G/GpL16-k0 (antibody, human IgG1, kappa)
heavy: not shown
light: B1 light
notes: also called Ho Ab I332_01G
B33: GpH7-B3 variant K326_08L/GpL16-k0 (antibody, human IgG1, kappa)
heavy: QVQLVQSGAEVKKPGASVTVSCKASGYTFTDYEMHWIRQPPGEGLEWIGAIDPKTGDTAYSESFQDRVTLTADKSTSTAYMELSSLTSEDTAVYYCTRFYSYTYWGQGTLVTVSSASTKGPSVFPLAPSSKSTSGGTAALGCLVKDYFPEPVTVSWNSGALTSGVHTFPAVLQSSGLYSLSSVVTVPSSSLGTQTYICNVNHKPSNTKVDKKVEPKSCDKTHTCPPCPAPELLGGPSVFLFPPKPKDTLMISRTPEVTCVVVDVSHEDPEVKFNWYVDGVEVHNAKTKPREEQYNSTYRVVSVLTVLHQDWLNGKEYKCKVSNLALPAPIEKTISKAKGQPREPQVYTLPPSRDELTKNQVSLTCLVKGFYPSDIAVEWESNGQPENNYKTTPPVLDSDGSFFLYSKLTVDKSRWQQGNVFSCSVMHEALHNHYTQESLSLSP
light: B1 light
notes: also called Ho Ab K326_08L
B34: GpH7-B3 variant S337_09D/GpL16-k0 (antibody, human IgG1, kappa)
heavy: not shown
light: B1 light
notes: also called Ho Ab S337_09D
B35: GpH7-B3 variant I336_03V/GpL16-k0 (antibody, human IgG1, kappa)
heavy: not shown
light: B1 light
notes: also called Ho Ab I336_03V
B36: GpH7-B3 variant S267_09D/GpL16-k0 (antibody, human IgG1, kappa)
heavy: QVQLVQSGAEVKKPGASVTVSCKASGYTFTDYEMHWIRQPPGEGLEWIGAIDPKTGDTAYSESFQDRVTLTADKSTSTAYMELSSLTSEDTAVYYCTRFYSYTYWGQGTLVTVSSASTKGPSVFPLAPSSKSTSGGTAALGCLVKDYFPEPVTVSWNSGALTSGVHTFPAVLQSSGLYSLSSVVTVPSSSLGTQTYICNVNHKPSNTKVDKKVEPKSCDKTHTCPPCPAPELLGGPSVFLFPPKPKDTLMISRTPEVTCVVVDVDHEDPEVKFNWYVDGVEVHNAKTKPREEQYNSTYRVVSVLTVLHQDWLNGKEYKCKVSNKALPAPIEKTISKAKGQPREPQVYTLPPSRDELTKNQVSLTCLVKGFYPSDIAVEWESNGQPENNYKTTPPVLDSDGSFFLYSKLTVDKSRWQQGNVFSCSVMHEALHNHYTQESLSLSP
light: B1 light
notes: also called Ho Ab S267_09D
B37: GpH7-B3 variant K334_09D/GpL16-k0 (antibody, human IgG1, kappa)
heavy: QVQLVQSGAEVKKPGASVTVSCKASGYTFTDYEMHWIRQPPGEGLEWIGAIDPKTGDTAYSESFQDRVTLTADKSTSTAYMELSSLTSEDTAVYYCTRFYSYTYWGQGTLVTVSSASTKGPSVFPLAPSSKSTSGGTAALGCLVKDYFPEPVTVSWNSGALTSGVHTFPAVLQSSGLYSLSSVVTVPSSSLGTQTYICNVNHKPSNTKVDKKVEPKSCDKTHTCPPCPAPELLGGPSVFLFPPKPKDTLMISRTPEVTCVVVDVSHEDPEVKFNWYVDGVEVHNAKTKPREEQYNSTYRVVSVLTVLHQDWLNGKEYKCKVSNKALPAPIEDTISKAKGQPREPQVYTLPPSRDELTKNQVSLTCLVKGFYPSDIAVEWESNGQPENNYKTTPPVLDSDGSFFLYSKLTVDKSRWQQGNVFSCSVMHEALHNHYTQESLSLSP
light: B1 light
notes: also called Ho Ab K334_09D
B38: GpH7-B3 variant S324_02A/GpL16-k0 (antibody, human IgG1, kappa)
heavy: not shown
light: B1 light
notes: also called Ho Ab S324_02A
B39: GpH7-B3 variant L234_20W/GpL16-k0 (antibody, human IgG1, kappa)
heavy: not shown
light: B1 light
notes: also called Ho Ab L234_20W
B40: GpH7-A5/GpH7-B3 variant Y300_07I/GpL16-k0 (antibody, human IgG1, kappa)
heavy 1: not shown
heavy 2: not shown
light: B1 light
notes: heterodimerized antibody, mutation in one H chain only; also called Y300_07I He Ab
B41: GpH7-A5/GpH7-B3 variant Y300_16H/GpL16-k0 (antibody, human IgG1, kappa)
heavy 1: not shown
heavy 2: not shown
light: B1 light
notes: heterodimerized antibody, mutation in one H chain only; also called Y300_16H He Ab
B42: GpH7-A5/GpH7-B3 variant Y296_07I/GpL16-k0 (antibody, human IgG1, kappa)
heavy 1: not shown
heavy 2: not shown
light: B1 light
notes: heterodimerized antibody, mutation in one H chain only; also called Y296_07I He Ab
B43: GpH7-A5/GpH7-B3 variant Y296_03V/GpL16-k0 (antibody, human IgG1, kappa)
heavy 1: not shown
heavy 2: not shown
light: B1 light
notes: heterodimerized antibody, mutation in one H chain only; also called Y296_03V He Ab
B44: GpH7-A5/GpH7-B3 variant Y296_08L/GpL16-k0 (antibody, human IgG1, kappa)
heavy 1: not shown
heavy 2: not shown
light: B1 light
notes: heterodimerized antibody, mutation in one H chain only; also called Y296_08L He Ab

The binders below were run against T1, FcγRIIIa extracellular domain with C-terminal His tag (human, UniProt P08637 17-208) (assay: SPR relative binding; GpH7-B3/GpL16-k0 = 100).
T1 construct: extracellular domain; also called FcgRIIIa; 3a; not shown: His tag at the C terminus
Description: Analysis of interaction between objective antibody and the FcγR was carried out using Biacore T100 (GE Healthcare). HBS-EP+ (GE Healthcare) was used as the running buffer, and the measurement temperature was set to 25° C. Chips produced by immobilizing the antigen peptide by the amine coupling method to a Series S Sencor Chip CM5 (GE Healthcare), or alternatively, chips produced by allowing preliminarily biotinylated antigen peptides to interact with and immobilize onto a Series S Sensor Chip SA (certified) (GE Healthcare) were used. Antibodies of interest were captured onto an antigen peptide-immobilized chip, and allowed to interact to each FcγR diluted with running buffer. To regenerate and repeatedly use the chip, the antibodies captured on the chip were washed off by reacting 10 mM glycine-HCl, pH 1.5.
The FcγR-binding activity of each antibody was assessed primarily using as an indicator the FcγR-binding activity and dissociation constant for FcγR.

T1 sequence (P08637 17-208): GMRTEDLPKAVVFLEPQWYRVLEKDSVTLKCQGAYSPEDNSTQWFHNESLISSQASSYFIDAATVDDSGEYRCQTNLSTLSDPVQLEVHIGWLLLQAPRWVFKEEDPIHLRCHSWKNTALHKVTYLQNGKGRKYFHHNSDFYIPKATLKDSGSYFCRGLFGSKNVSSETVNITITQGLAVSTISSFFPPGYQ

Binder | Ho/Con_3a
B1 | 95.6 % of control
B2 | 56.6 % of control
B3 | 95.4 % of control
B4 | 87.1 % of control
B5 | 97.2 % of control
B6 | 86.5 % of control
B7 | 95.8 % of control
B8 | 104 % of control
B9 | 0.8 % of control
B10 | 109 % of control
B11 | 95.1 % of control
B12 | 100 % of control
B13 | 145 % of control
B14 | 41.6 % of control
B15 | 107 % of control
B16 | 49.9 % of control
B17 | 134 % of control
B18 | 90.9 % of control
B19 | 90.3 % of control
B20 | 100 % of control

Binder | Ho/Con_3a
B21 | 93.3 % of control
B22 | 101 % of control
B23 | 88 % of control
B24 | -0.1 % of control
B25 | 107 % of control
B26 | 108 % of control
B27 | 98.2 % of control
B28 | 118 % of control
B29 | 104 % of control
B30 | 103 % of control
B31 | 93 % of control
B32 | 104 % of control
B33 | 114 % of control
B34 | 106 % of control
B35 | 110 % of control
B36 | 160 % of control
B37 | 150 % of control
B38 | 99.8 % of control
B39 | 37.1 % of control

What follows are binders tested against T2, FcγRIa extracellular domain with C-terminal His tag (human, UniProt P12314 16-292) (assay: SPR (Biacore), relative FcγRIa binding, GpH7-A5/GpH7-B3/GpL16-k0 (HeCon Ab) = 100).
T2 construct: extracellular domain; soluble analyte in Biacore; also called FcgRI; CD64
T2 sequence (P12314 16-292): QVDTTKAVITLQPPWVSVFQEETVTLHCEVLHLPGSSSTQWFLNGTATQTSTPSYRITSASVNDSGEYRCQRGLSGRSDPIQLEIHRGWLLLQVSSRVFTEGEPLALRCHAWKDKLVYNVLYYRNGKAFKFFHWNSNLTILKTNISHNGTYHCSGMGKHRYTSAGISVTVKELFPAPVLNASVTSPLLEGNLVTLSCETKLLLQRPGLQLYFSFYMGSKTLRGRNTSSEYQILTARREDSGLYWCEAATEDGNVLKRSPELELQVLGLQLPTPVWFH

Binder | He/Con_1a
B40 | 108 % of control
B41 | 111 % of control
B42 | 104 % of control
B43 | 104 % of control
B44 | 104 % of control

From US20180155451A1 (published 2018)
